# Source: the DeepSol protein solubility set
# Assay: soluble on expression in E. coli; label from the status in PepcDB or PDB records
row,Sequence,soluble on expression in E. coli
1,GMKFSKFGQKFTQPTGISQLMDDLGDALKSDQPVNMLGGGNPAKIDAVNELFLETYKALGNDNDTGKANSSAIISMANYSNPQGDSAFIDALVGFFNRHYDWNLTSENIALTNGSQNAFFYLFNLFGGAFVNEHSQDKESKSVDKSILLPLTPEYIGYSDVHVEGQHFAAVLPHIDEVTHDGEEGFFKYRVDFEALENLPALKEGRIGAICCSRPTNPTGNVLTDEEMAHLAEIAKRYDIPLIIDNAYGMPFPNIIYSDAHLNWDNNTILCFSLSKIGLPGMRTGIIVADAKVIEAVSAMNAVVNLAPTRFGAAIATPLVANDRIKQLSDNEIKPFYQKQATLAVKLLKQALGDYPLMIHKPEGAIFLWLWFKDLPISTLDLYERLKAKGTLIVPSEYFFPGVDVSDYQHAHECIRMSIAADEQTLIDGIKVIGEVVRELYDNK,soluble
2,GMKSAPDWIAHPDTPYLLIDEAKLKSNINYLKQRVESLGSHLRPHLKTLRTLEAAGYLLDSKSAPATVSTLAEAEAYAKAGYTDLLYAVGIAPAKLKRVAALRQQGINLHILLDNITQAQAVVDYAAEFGQDFSVFIEIDSDDHRGGIKPSDSKLLTIAKTLGEHFTGLMTHAGGSYACNTEQGLKNFAKQECDAVRIARNNLETAGIHCAITSVGSTPTAHFGEDFSDISEVRAGVYTTFDLVMKNIGVCDFSHIAMSVVTTVIGHNKEKNWLLTDSGWMALSRDSGTAGQNRDFGYGQVCKIDGSVLDGLCVNSTSQEHGVIELSDAYQLEDFPVGHQLRIMPNHACATAAMHPVYHVLMSDGSHNTWQRITGW,soluble
3,GMKTQITTRDLVLEFIHALNTENFPAAKKRLNENFTFNGPMGHREGSERYMNDMEKMKFKYVVHKMFEEGNDVCLIYDINMNGKTIAASGLYHLEKGEITSLHVYFDPRPLFEE,soluble
4,GMMTDEARAKLAAIPMLAGYTGPLERLGGLTNLVFRAGDLCLRIPGKGTEEYINRANEAVAAREAAKAGVSPEVLHVDPATGVMVTRYIAGAQTMSPEKFKTRPGSPARAGEAFRKLHGSGAVFPFRFELFAMIDDYLKVLSTKNVTLPAGYHDVVREAGGVRSALAAHPLPLAACHCDPLCENFLDTGERMWIVDWEYSGMNDPLWDLGDLSVEGKFNANQDEELMRAYFGGEARPAERGRVVIYKAMCDLLWTLWGLIQLANDNPVDDFRAYADGRFARCKALMETPEFSRHLAAVRMG,soluble
5,GMNNRELYGNIRDVYHLLQKNLDKAIEQYDISYVQFGVIQVLAKSGKVSMSKLIENMGCVPSNMTTMIQRMKRDGYVMTEKNPNDQRETLVYLTKKGEETKKQVDVQYSDFLKENCGCFTKEEEGILEDLLLKWKKHLN,soluble
6,GMNVNFINPFLQSLLNVISTMASLELTPGKPQIKTDNLAKGDVSGLIGMVGPQTKGSLSITFEQKLVLQIMQNMLGENPGKINEEVTDLVGEITNMVTGGAKNLLGQKGYEFEMATPMVVSGQGHTISHKANGTKIIMPFTSSYGTAFIEVCFES,soluble
7,GMQKPHLLITSAGRRAKLVEYFVKEFKTGRVSTADCSPLASALYMADQHYIVPKIDEVEYIDHLLTLCQDEGVTALLTLIDPELGLLAQATERFQAIGVTVIVSPYAACELCFDKYTMYEYCLRQGIAHARTYATMASFEEALAAGEVQLPVFVKPRNGSASIEVRRVETVEEVEQLFSKNTDLIVQELLVGQELGVDAYVDLISGKVTSIFIKEKLTMRAGETDKSRSVLRDDVFELVEHVLDGSGLVGPLDFDLFDVAGTLYLSEINPRFGGGYPHAYECGVNFPAQLYRNLMHEINVPQIGQYLDDIYMLKHDTVTLISAAELQKIKR,soluble
8,GMSAGKTVVIALGGNAMLQAKEKGDYDTQRKNVEIAASEIYKIHKAGYKVVLTSGNGPQVGAIKLQNQAAAGVSPEMPLHVCGAMSQGFIGYMMSQAMDNVFCANNEPANCVTCVTQTLVDPKDQAFTNPTKPVGRFYTEQEAKDLMAANPGKILREDAGRGWRVVVPSPRPLEIVEYGVIKTLIDNNVLVICTNGGGIPCKRENKVISGVDAVIDKDLATSLLAKTLNSDYLMILTDVLNACINYKKPDERKLEEIKLSEILALEKDGHFAAGSMGPKVRAAIEFTQATGKMSIITSLSTAVDALNGKCGTRIIKD,soluble
9,GMSETITFPPLMTGEAAGPGQDPFDLACQKAELGVDAGLVVYELGTDVLRAALVLAPEVPLAKAMAMLPVCGVGFQNALGALAPPEVAVHLDWNGALRINGARCGRLRIAASTDDPDTQPDWLVVGLDLPLWPEGDGGETPDETALYAEGCADVAAPRLLESWARHCLHWINRWDEGELETIHGEWRGLAHGMGEARTEAGRSGTFLGVDEDFGMLLRDETTTHLIPLTTVLVQD,soluble
10,GMSKLSLIQQLKQQKLSVGILSANWLQLNEEVTTLLENQINVLHFDIADGQFSSLFTVGAIGIKYFPTHCFKDVHLMVRNQLEVAKAVVANGANLVTLQLEQYHDFALTIEWLAKQKTTYANQVYPVLIGACLCPETPISELEPYLDQIDVIQLLTLDPRNGTKYPSELILDRVIQVEKRLGNRRVEKLINIDGSMTLELAKYFKQGTHQIDWLVSGSALFSGELKTNLKVWKSSIM,soluble
11,GMSPQSMLTSPQHPRRTTMVISHGTLSASAEHAAHLRQLLVHIAQATRQEDGCLLYLVSEDLSQPGHFLITEHWDNLGAMHTHLALPGVTQAIDALKHLNVTDLKITAYEAGEAINIMG,soluble
12,GMSSKAEKDIKWGIAPIGWRNDDIPSIGKDNNLQQLLSDIVVAGFQGTEVGGFFPGPEKLNYELKLRNLEIAGQWFSSYIIRDGIEKASEAFEKHCQYLKAINAPVAVVSEQTYTIQRSDTANIFKDKPYFTDKEWDEVCKGLNHYGEIAAKYGLKVAYHHHMGTGIQTKEETDRLMANTDPKLVGLLYDTGHIAVSDGDYMALLNAHIDRVVHVHFKDVRRSKEEECRAKGLTFQGSFLNGMFTVPGDGDLDFKPVYDKLIANNYKGWIVVEAEQDPSKANPLEMAQIAHRYIKQHLIEN,soluble
13,GMSSNVSHFEGTRPVADQQRFDTEALEAWMRQHVEGFAGPLSVEQFKGGQSNPTFKLVTPGQTYVMRAKPGPKSKLLPSAHAIEREYRVMDALAGTDVPVAKMYALCEDESVIGRAFYIMEFVSGRVLWDQSLPGMSPAERTAIYDEMNRVIAAMHTVDYQAIGLGDYGKPGNYFQRQIERWTKQYKLSETESIPAMDSLMDWLPQHIPQEDADLTSIVHGDYRLDNLMFHPTEPRVLAVLDWELSTLGHPMGDFGYHCMSWHIAPGQFRGIAGLDHAALGIPDEASYRKLYEQRTGRPITGDWNFYLAFSMFRIAGILQGIMKRVVDGTASSAQALDAGKRARPMAEMGWEYAKKAKQ,soluble
14,GMSVKVSVDDIDGITEVLNVYMNAAESGTGEEMSAAFHKDATIFGYVGDKLAFNGPIKDLYDWHNSNGPAKNVQSRITNIDIVGTVAHARVEAENWTNFKFSDLFLLLKLDGKWTIVNKVFHLHA,soluble
15,GMTLTRDSLLTLEAYAKVRRQEHARVIAHKKRRAVSIGNHLRLLFEDETTIRYQIHEMLHIEKIFDEDGIQAELDAYLPLVPDGSNLKATLQIEYENETQRRAALARLVGIEDRVFLRVDDEAPVYAIADEDLERDTAEKTSAVHFLRFELGDAMKAKLKAGAPLSIGCDHPHYPIQAARIDPDVAASLAGDLD,soluble
16,GMTTENTTALLLIDFQNDYFSTYNGAKNPLVGTEAAAEQGAKLLAKFRQQGLPVVHVRHEFPTDEAPFFLPGSDGAKIHPSVAAQEGEAVVLKHQINSFRDTDLKKVLDDAGIKKLVIVGAMTHMCIDAVTRAAEDLGYECAVAHDACATLDLEFNGITVPAAQVHAAFMSALSFAYANVASADELIAGL,soluble
17,GMTTNTIMEQEARTAPQKIAEQLLANDAITESLGSVLREFKPKFVMIVGRGSSDHAGVFAKYLFEIEASIPTFAAAPSVASVYGKTLKLAGGLVIVISQSGRSPDILAQARMAKNAGAFCVALVNDETAPIKDIVDVVIPLRAGEEKAVAATKSYLATLSALLQVAAKWTQNESLVEAVNSLPQALQAAVDAEPQLRAGSLTDVKNLVVLGRGFGYAVSKEIALKLKEVCAIHAEAFSSAEFLHGPVTLVEKKLSILDVCIRDESYGSHVEQIANVKQRGANLIHLHQTSADIHPRIAPLALLQRFYIDVAAVAIALGINPDKPAGLKKVTQTL,soluble
18,GMYNPVGVAAIGLGRWAYVMADAYTKSEKLKLVTCYSRTEDKREKFGKRYNCAGDATMEALLAREDVEMVIITVPNDKHAEVIEQCARSGKHIYVEKPISVSLDHAQRIDQVIKETGVKFLCGHSSRRLGALRKMKEMIDTKEIGEVSSIEAVFSNERGLELKKGNWRGEPATAPGGPLTQLGVHQIDNLQFLLGPVARVFNFGKPMYTEVENITVNQTLLEFEDGKQAYLGTNWACPGVFSINVYGTKANLFYQLDFSWWSNSDVTDEHSTLIKREFASMSDDPDNRILRDVKVDFESVDHLRVEVEEVADVIRNGGETEIGAEASLRNLAVVLAAVKSVHEKRPVEIAEIIG,soluble
19,GPAIAENLYFQSPQLNGGGGDDLGANDELISFKDEGEQEEKSSENSSAERDLADVKSSLVNESETNQNSSSDSEAERRPPPRSESFRDKSRESLEEAAKRQDGGLFKGPPYPGYPFIMIPDLTSPYLPNGSLSPTARTYLQMKWPLLDVQAGSLQSRQALKDARSPSPAHIVSNKVPVVQHPHHVHPLTPLITYSNEHFTPGNPPPHLPADVDPKTGIPRPPHPPDISPYYPLSPGTVGQIPHPLGWQGQPVYPITTGGFRHPYPTALTVNASMSRFPPHMVPPHHTLHTTGIPHPAIVTPTVKQESSQSDVGSLHSSKHQDSKKEEEKKKPHIKKPLNAFMLYMKEMRAKVVAECTLKESAAINQILGRRWHALSREEQAKYYELARKERQLHMQLYPGWSARDNYGKKKKRKRDKQPGETNEHSECFLNPCLSLPPITGEKKSAFATYKVKAAASAHPLQMEAY,soluble
20,GPGSDVFFSGYLNKLKGGDNHSWKKRYLQVQKGHFIMSDKESDTEGKALSLEHIQSVCPVPVSTAKREHVFALHTTSGKSMWFEAASLENMEEWIHAIQCGLGVA,soluble
21,GPGSMALPRLQMFALASRIEELVLDSVTVHPHSVVAIGNAERQGNGQPPPPSNWVPLSDLASLQKLRRLDMTNCKGDFDCAGIARCCFLRSVHLSGCNVKDADVPHLAQLPCVEELLLSRTRITNVQALAAGKGLRIIQLSNAQVDSDGIDGLQTLPYLTRLDLSSTLVSDVNCLGQSQSLIYLNLAKTHVTSEGIAGLSRLLTLEHLMLNNNNIRDVSFLAESHSLKTLSLQSTLVDSAGLEGLGRLRTLQDLSLAHTRVTNVTKLQHCRNLWRLDLQGSFVDQAGIVGLERLPKLRVLVLSKTDVASLELILKSESLEQLEVKFSHVNERSAFFGVTKASALTDVTLTHCDVSDINNLGMCKELRLLNVWSSKVTSEGIAGLCDARSLQEVDLAETAVTDISPLLSCTKIQALILYRSSVRSLDGIGALQQLRRLDIAETSVSSIRSLSACQRLEILNLSNTAVDDDGFQGIGQAQSLKVVSMSFTAITQVGQLGQCSHLEELHAQSCPVTSEGLVGLERACCLVKLNLSYTKLQSGIQRLTNCRKLLKLNVKFTEVPYDEVAYVKRHLPSCRVMNDAAQRMAKDVTLLT,not soluble
